Measurements as given in US20100249029A1 (Novo Nordisk, published 2010).
Positions count from the first letter of the chain named. In names and notes the source's numbering stands.

Experiments:
[1] = target: T1, PRLR stably expressed on Ba/F3 cells (Ba/F3-PRLR) (UniProt P16471 25-622, limits assumed); assay: cell-based or functional assay
T1 sequence (looked up): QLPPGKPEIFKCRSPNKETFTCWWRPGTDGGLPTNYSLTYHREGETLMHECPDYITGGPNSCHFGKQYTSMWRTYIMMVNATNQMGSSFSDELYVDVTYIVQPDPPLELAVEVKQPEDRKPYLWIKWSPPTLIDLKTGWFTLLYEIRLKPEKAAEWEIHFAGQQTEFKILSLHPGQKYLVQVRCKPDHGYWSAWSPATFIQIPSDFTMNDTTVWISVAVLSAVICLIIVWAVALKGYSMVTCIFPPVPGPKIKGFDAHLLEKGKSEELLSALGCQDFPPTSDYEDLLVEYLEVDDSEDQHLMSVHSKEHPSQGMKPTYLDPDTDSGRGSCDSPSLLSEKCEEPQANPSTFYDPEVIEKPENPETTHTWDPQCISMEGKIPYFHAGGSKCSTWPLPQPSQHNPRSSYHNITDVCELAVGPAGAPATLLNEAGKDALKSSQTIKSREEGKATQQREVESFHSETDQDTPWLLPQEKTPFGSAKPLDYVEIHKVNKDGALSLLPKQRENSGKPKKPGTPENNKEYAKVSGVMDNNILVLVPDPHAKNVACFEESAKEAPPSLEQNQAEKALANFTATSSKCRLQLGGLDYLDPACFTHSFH

[2] = target: T2, Biotinylated prolactin receptor BirATag-Ser-PRLR (1-210) (human, UniProt P16471 25-234, biotinylated (BirA tag, biotin added during expression in E. coli)); assay: Biacore SPR, BirATag-Ser-PRLR (1-210) immobilised on a CM5 chip, PRL analogues 1.6-25 nM
T2 construct: range 1-210; also called BirA-Ser-PRLR (1-210); not shown: BirA tag (biotin acceptor tag)
T2 sequence: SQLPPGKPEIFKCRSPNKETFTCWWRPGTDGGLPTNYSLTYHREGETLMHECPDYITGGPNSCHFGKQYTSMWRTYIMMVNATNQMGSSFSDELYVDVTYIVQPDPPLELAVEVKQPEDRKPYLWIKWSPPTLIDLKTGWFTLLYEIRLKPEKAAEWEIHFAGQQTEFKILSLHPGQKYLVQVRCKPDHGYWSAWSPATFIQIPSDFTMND
Method: (§1) Biotinylated prolactin receptor BirATag-Ser-PRLR (1-210) was diluted to 20 μg/ml in 10 mM sodium acetate pH 4.0 (Biacore BR-1003-49) and immobilized on the CM5 chip (Biacore BR-1006-68) with the immobilization reagents 1-ethyl-3-(3-dimethylaminopropyl) carbodiimide hydrochloride (EDC), N-hydroxysuccinimide (NHS) and 1.0 M ethanolamine-HCl pH 8.5 (Biacore BR1000-50). The immobilization level was 1500 RU. The PRL analogues were diluted to a series of concentrations as following: 1.6/3.13/6.25/12.5/25 nM and run through the PRLR immobilized chip using HBS-EP (10 mM HEPES pH 7.4; 150 mM NaCl; 3 mM EDTA; 0.005% v/v Tween-20) as the running buffer under the following conditions: […]

[3] = target: T1, PRLR stably expressed on Ba/F3 cells …; assay: cell-based or functional assay; remark: listed apart in the source
[4] = target: T2, Biotinylated prolactin receptor …; assay: SPR (Biacore); biotinylated BirATag-Ser-PRLR (1-210) amine-coupled to CM5 chip, control injected at 3.13-50 nM; STDEV 1.63; one value under a double label
Method: as §1, with “on a” for “on the”, “PRL variants prepared as described in Example 5” for “PRL analogues”, “following: 3.13/6.25/12.5/25/50” for “following: 1.6/3.13/6.25/12.5/25”

[5] = target: T2, Biotinylated prolactin receptor …; assay: SPR (Biacore); BirATag-Ser-PRLR (1-210) on CM5 chip, analogue injected at 1.6-25 nM (FIG. 5)
Method: as §1

[6] = target: T2, Biotinylated prolactin receptor …; assay: SPR (Biacore); biotinylated BirATag-Ser-PRLR (1-210) amine-coupled to CM5 chip, variant injected at 3.13-50 nM; STDEV 0.000
Method: as §1, with “on a” for “on the”, “PRL variants prepared as described in Example 5” for “PRL analogues”, “following: 3.13/6.25/12.5/25/50” for “following: 1.6/3.13/6.25/12.5/25”

[7] = target: T2, Biotinylated prolactin receptor …; assay: SPR (Biacore); biotinylated BirATag-Ser-PRLR (1-210) amine-coupled to CM5 chip, variant injected at 3.13-50 nM; STDEV 0.17
Method: as §1, with “on a” for “on the”, “PRL variants prepared as described in Example 5” for “PRL analogues”, “following: 3.13/6.25/12.5/25/50” for “following: 1.6/3.13/6.25/12.5/25”

[8] = target: T2, Biotinylated prolactin receptor …; assay: SPR (Biacore); biotinylated BirATag-Ser-PRLR (1-210) amine-coupled to CM5 chip, variant injected at 3.13-50 nM; STDEV 0.28
Method: as §1, with “on a” for “on the”, “PRL variants prepared as described in Example 5” for “PRL analogues”, “following: 3.13/6.25/12.5/25/50” for “following: 1.6/3.13/6.25/12.5/25”

[9] = target: T2, Biotinylated prolactin receptor …; assay: SPR (Biacore); biotinylated BirATag-Ser-PRLR (1-210) amine-coupled to CM5 chip, variant injected at 3.13-50 nM; STDEV 0.44
Method: as §1, with “on a” for “on the”, “PRL variants prepared as described in Example 5” for “PRL analogues”, “following: 3.13/6.25/12.5/25/50” for “following: 1.6/3.13/6.25/12.5/25”

[10] = target: T2, Biotinylated prolactin receptor …; assay: SPR (Biacore); biotinylated BirATag-Ser-PRLR (1-210) amine-coupled to CM5 chip, variant injected at 3.13-50 nM; STDEV 0.092
Method: as §1, with “on a” for “on the”, “PRL variants prepared as described in Example 5” for “PRL analogues”, “following: 3.13/6.25/12.5/25/50” for “following: 1.6/3.13/6.25/12.5/25”

[11] = target: T2, Biotinylated prolactin receptor …; assay: SPR (Biacore); biotinylated BirATag-Ser-PRLR (1-210) amine-coupled to CM5 chip, variant injected at 3.13-50 nM; STDEV 0.29
Method: as §1, with “on a” for “on the”, “PRL variants prepared as described in Example 5” for “PRL analogues”, “following: 3.13/6.25/12.5/25/50” for “following: 1.6/3.13/6.25/12.5/25”

[12] = target: T2, Biotinylated prolactin receptor …; assay: SPR (Biacore); biotinylated BirATag-Ser-PRLR (1-210) amine-coupled to CM5 chip, variant injected at 3.13-50 nM; STDEV 0.042
Method: as §1, with “on a” for “on the”, “PRL variants prepared as described in Example 5” for “PRL analogues”, “following: 3.13/6.25/12.5/25/50” for “following: 1.6/3.13/6.25/12.5/25”

B1: wild type human prolactin (ligand)
chain: LPICPGGAARCQVTLRDLFDRAVVLSHYIHNLSSEMFSEFDKRYTHGRGFITKAINSCHTSSLATPEDKEQAQQMNQKDFLSLIVSILRSWNEPLYHLVTEVRGMQEAPEAILSKAVEIEEQTKRLLEGMELIVSQVHPETKENEIYPVWSGLPSLQMADEESRLSAYYNLLHCLRRDSHKIDNYLKLLKCRIIHNNNC
EC50, Ba/F3-PRLR proliferation assay [1]: 0.102 nM | EC50, stimulation (proliferation) assay, Ba/F3-PRLR cell line PRLR-09 [1]: 54 pM | EC50, stimulation (proliferation) assay, Ba/F3-PRLR cell line PRLR-32 [1]: 37.5 pM

B2: PRL S61A, Q71A, Q73A, G129R (ligand)
prolactin variant: B1 chain with S61A, Q71A, Q73A, G129R
notes: It is not in the first reading's list; also called rational designed mutant
binding result [2]: binds

B3: PRL G129R (ligand)
chain: B1 chain with G129R
notes: also called [2H,15N]PRL-G129R; [2H,13C,15N]PRL-G129R
EC50 (so in the source); inhibition of proliferation of Ba/F3-PRLR cells stimulated with 1 nM wtPRL, OD490nM [3]: 64.6 nM | LOGEC50 (same fit) [3]: -7.19 LogM | EC50, Ba/F3-PRLR proliferation assay [1]: 3.2 nM | highest proliferation rate relative to wtPRL, Ba/F3-PRLR proliferation assay [1]: 12 % of wtPRL | Kd [4]: 13.9 nM

B4: [PRL Q73L, M75T, N76S, F80L, G129R] (ligand)
chain: B1 chain with Q73L, M75T, N76S, F80L, G129R
notes: also called HTPN-62
EC50 (so in the source); inhibition of proliferation of Ba/F3-PRLR cells stimulated with 1 nM wtPRL, OD490nM [3]: 13.8 nM | LOGEC50 (same fit) [3]: -7.86 LogM | antagonist activity relative to [PRL G129R], Ba/F3-PRLR competition assay against 1 nM wtPRL [1]: ~4 fold | fold higher affinity than wt PRL and [PRL G129R] [5]: ~2 fold

B5: PRL S61A, D68N, G129R, K190R (ligand)
chain: B1 chain with S61A, D68N, G129R, K190R
notes: Printed without the prefix Ser-; No. 23 carries the same substitutions with Ser-
Kd [6]: 1.4 nM

B6: [PRL S33A, Q73L, G129R, K190R] (ligand)
chain: B1 chain with S33A, Q73L, G129R, K190R
fold higher affinity than wt PRL and [PRL G129R] [5]: ~2 fold

B7: Ser-PRL Q73L, G129R, K190R (ligand)
chain: SLPICPGGAARCQVTLRDLFDRAVVLSHYIHNLSSEMFSEFDKRYTHGRGFITKAINSCHTSSLATPEDKEQALQMNQKDFLSLIVSILRSWNEPLYHLVTEVRGMQEAPEAILSKAVEIEEQTKRLLERMELIVSQVHPETKENEIYPVWSGLPSLQMADEESRLSAYYNLLHCLRRDSHKIDNYLKLLRCRIIHNNNC
Kd [7]: 2.6 nM

B8: Ser-PRL S33D, Q73L, M75T, N76S, F80L, G129R, K190R (ligand)
chain: B7 chain with S34D, M76T, N77S, F81L
Kd [7]: 3.1 nM

B9: Ser-PRL Q73L M75T N76S F80L G129R (ligand)
chain: B7 chain with M76T, N77S, F81L, R191K
Kd [8]: 3.6 nM

B10: Ser-PRL G129R (ligand)
chain: B7 chain with L74Q, R191K
notes: The control row gives one KD under the double label 'PRL G129R/Ser-PRL G129R'
Kd [4]: 13.9 nM

B11: Ser-PRL S33A, Q73L, G129R, K190R, I194V, H195Y, N196R, N197D (ligand)
chain: B7 chain with S34A, I195V, H196Y, N197R, N198D
Kd [9]: 3.8 nM

B12: Ser-PRL K42R, Q73L, G129R, K190R (ligand)
chain: B7 chain with K43R
Kd [10]: 2.6 nM

B13: Ser-PRL S38I, D68N, G129R, S179T, I182V (ligand)
chain: B7 chain with S39I, D69N, L74Q, S180T, I183V, R191K
Kd [11]: 3.1 nM

B14: Ser-PRL G129R, K190R, I194V, H195Y, N196R, N197D (ligand)
chain: B7 chain with L74Q, I195V, H196Y, N197R, N198D
Kd [12]: 3.2 nM
